The target of experiment [1] is T1, IkBa peptide [SEQ ID No. 1] (Homo sapiens, UniProt P25963).
T1 construct: two phosphoserines in the DSGLDS motif (chemical modification); purchased New England Peptide, Fitchburg Mass; host or cells: chemical synthesis
Description: Phosphopeptide binding assay, peptide-BSA coated IPR plate. The source says: A phosphopeptide derived from the IkBa degradation motif (SEQ ID NO: 1) and a phosphopeptide derived from c-Myc (SEQ ID NO: 4) were chemically synthesized (New England Peptide, Fitchburg Mass.) with the following sequences respectively:
A maleimide pre-activated BSA (Pierce, Pittsburgh Pa.), which contains estimated 17 active maleimide groups on the protein surface, was used as the protein carrier, and was supplied as a lyophilized preparation. Coupling of the IkBa peptide (SEQ ID NO: 1) to the pre-activated BSA was carried out with 2 mg BSA (30 nmol) and 17 equivalents of the 25 residue phosphopeptide in 400 μl PBS. The reaction was terminated with 2 mM […] after incubation at room temperature for 30 minutes. The peptide:BSA conjugate was then purified on PD-10 gel filtration column to remove uncoupled peptide and analyzed with SDS PAGE to monitor the coupling reaction. […] After coupling and purification, the column fractions containing the peptide:BSA conjugates were pooled and the protein concentration of the pooled samples was determined by BCA assay (Pierce, Pittsburgh Pa.). NaN3, (0.02%) was added to the final peptide:BSA conjugate sample for long term storage at 4° C. […]
Two βTRCP genes, βTRCP1 and βTRCP2, are present in the human genome on chromosome 5 and 10, respectively. […] The ECL signals were measured using an imaging plate reader (IPR).

Experiment [2] concerns the target T2, Myc peptide (SEQ ID NO: 4) (Homo sapiens, UniProt P01106).
T2 construct: phosphothreonine (T58) and phosphoserine (S62) (chemical modification); purchased New England Peptide, Fitchburg Mass; host or cells: chemical synthesis
As to the kind of experiment: 96-well screen for phosphopeptide binding proteins, 7-spot IPR plates. Particulars: two steps of normalization; top 9 clones. Here is the method: A screen was conducted using 7-spot IPR plates. The 7 spot NPT IPR plates are described in more detail in copending Provisional Application No. 60/301,932 (entitled “Assay Plates, Reader Systems and Methods for Luminescence Test Measurements”, filed on Jun. 29, 2001, hereby incorporated by reference) and particularly in the description of Plate Type D in Example 6.1 (NPT IPR plate) and U.S. application Ser. Nos. 10/185,274 and 10/185,363, filed Jun. 28, 2002, each hereby incorporated by reference. These plates consist of a 96 wells with 7 zones (spots) for the immobilization of proteins or other reagents. Each spot was coated with BSA conjugated to either a single phosphopeptide or multiple phosphopeptides.
The plates were prepared essentially as described in example 12. The seven spots supported, respectively, the following BSA conjugates IkB, pY992, pY1068, pY1148, Myc, “A”, and “6-P”. […]
For the assay, 4 ul from TnT reaction product described above were added to the coated plate containing 50 μl of binding buffer supplemented with 50 ng/well Ru-Streptavidin. […] The ECL signals were measured using an imaging plate reader (IPR). The raw data from the IPR reader was then normalized using two steps of normalization. […] These 50 lowest values were averaged and divided into each signal for that spot to generate a signal value which could be compared readily between the peptide-conjugate spots. […]

T2 sequence (P01106 with tags, fused parts or gaps limits assumed): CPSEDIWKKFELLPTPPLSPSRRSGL
T1 sequence (P25963 with tags, fused parts or gaps limits assumed): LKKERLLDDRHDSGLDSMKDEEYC

B1: 4237375: IMAGE clone protein: βTRCP2 (protein)
chain: MEPDSVIEDKTIELMCSVPRSLWLGCANLVESMCALSCLQSMPSVRCLQISNGTSSVIVSRKRPSEGNYQKEKDLCIKYFDQWSESDQVEFVEHLISRMCHYQHGHINSYLKPMLQRDFITALPEQGLDHIAENILSYLDARSLCAAELVCKEWQRVISEGMLWKKLIERMVRTDPLWKGLSERRGWDQYLFKNRPTDGPPNSFYRSLYPKIIQDIETIESNWRCGRHNLQRIQCRSENSKGVYCLQYDDEKIISGLRDNSIKIWDKTSLECLKVLTGHTGSVLCLQYDERVIVTGSSDSTVRVWDVNTGEVLNTLIHHNEAVLHLRFSNGLMVTCSKDRSIAVWDMASATDITLRRVLVGHRAAVNVVDFDDKYIVSASGDRTIKVWSTSTCEFVRTLNGHKRGIACLQYRDRLVVSGSSDNTIRLWDIECGACLRVLEGHEELVRCIRFDNKRIVSGAYDGKIKVWDLQAALDPRAPASTLCLRTLVEHSGRVFRLQFDEFQIISSSHDDTILIWDFLNVPPSAQNETRSPSRTYTYISR
Regarding B1, the “Average ECL signal, IkBa peptide [SEQ ID No. 1]” value in experiment [1] worked out at 21501. For the same molecule, the “normalized ECL signal, Myc spot” value in experiment [2] was 10.

Values taken from patent US7063946B2, “Methods, reagents, kits and apparatus for protein function analysis” (Meso Scale Technologies, LLC., priority 2001, dated 2006).
